Assay results published in article doi:10.1101/2022.11.15.516651 (bioRxiv, 2022).

B1: SLC7A5 (natural protein)
chain: not shown
B2: SLC7A11 (xc(-)) (natural protein, human (endogenous in HeLa), UniProt Q9UPY5 1-501, looked up)
chain: MVRKPVVSTISKGGYLQGNVNGRLPSLGNKEPPGQEKVQLKRKVTLLRGVSIIIGTIIGAGIFISPKGVLQNTGSVGMSLTIWTVCGVLSLFGALSYAELGTTIKKSGGHYTYILEVFGPLPAFVRVWVELLIIRPAATAVISLAFGRYILEPFFIQCEIPELAIKLITAVGITVVMVLNSMSVSWSARIQIFLTFCKLTAILIIIVPGVMQLIKGQTQNFKDAFSGRDSSITRLPLAFYYGMYAYAGWFYLNFVTEEVENPEKTIPLAICISMAIVTIGYVLTNVAYFTTINAEELLLSNAVAVTFSERLLGNFSLAVPIFVALSCFGSMNGGVFAVSRLFYVASREGHLPEILSMIHVRKHTPLPAVIVLHPLTMIMLFSGDLDSLLNFLSFARWLFIGLAVAGLIYLRYKCPDMHRPFKVPLFIPALFSFTCLFMVALSLYSDPFSTGIGFVITLTGVPAYYLFIIWDKKPRWFRIMSEKITRTLQIILEVVPEEDKL

Columns and labels:
[1] = target: T1, FLAG-SLC3A2 N381D (human, UniProt P08195-1 66-630, N381D); experiment: affinity purification with mass spectrometry
T1 sequence (looked up): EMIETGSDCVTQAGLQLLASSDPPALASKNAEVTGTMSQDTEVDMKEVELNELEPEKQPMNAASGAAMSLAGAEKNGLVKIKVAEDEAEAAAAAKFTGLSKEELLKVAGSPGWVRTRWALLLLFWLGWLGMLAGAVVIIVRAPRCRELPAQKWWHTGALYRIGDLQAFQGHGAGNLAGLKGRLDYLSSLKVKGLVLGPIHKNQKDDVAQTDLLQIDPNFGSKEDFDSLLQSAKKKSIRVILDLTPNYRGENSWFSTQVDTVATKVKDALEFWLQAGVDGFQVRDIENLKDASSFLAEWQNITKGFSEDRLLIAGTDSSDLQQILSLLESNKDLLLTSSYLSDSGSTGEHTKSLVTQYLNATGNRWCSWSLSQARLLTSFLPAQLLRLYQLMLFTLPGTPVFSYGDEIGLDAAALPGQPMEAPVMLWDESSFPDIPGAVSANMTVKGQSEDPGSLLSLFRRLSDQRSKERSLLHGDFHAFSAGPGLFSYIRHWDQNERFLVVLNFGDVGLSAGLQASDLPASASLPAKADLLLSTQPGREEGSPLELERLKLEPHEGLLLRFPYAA

[2] = target: T2, FLAG-SLC3A2 N365D (human, UniProt P08195-1 66-630, N365D); experiment: affinity purification with mass spectrometry
T2 sequence (looked up): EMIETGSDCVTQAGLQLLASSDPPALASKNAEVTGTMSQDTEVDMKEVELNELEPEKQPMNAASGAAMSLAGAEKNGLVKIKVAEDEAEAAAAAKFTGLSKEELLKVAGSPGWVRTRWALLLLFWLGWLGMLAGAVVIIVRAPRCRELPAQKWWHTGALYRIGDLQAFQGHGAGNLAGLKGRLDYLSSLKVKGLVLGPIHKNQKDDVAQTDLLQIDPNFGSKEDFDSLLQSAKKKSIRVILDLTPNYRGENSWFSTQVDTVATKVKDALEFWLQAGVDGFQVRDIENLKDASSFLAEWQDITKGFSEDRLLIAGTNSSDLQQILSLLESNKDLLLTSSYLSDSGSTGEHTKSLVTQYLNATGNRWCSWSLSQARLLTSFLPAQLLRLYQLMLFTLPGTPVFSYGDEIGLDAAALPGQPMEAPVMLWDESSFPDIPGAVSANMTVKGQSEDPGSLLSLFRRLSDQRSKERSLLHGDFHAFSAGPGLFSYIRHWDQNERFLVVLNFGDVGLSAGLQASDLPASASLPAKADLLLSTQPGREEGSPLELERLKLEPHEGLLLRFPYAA

Binder | percent decrease of association against WTseq [1] | percent decrease of association against WTseq [2]
B1 | 44 ± 14% | 44 ± 14%
B2 | 67 ± 15% | 67 ± 15%
